Laboratory results as given in PMC2989460.

Molecular target: anaphase-promoting complex/cyclosome (APC/C), human (human (endogenous in HeLa)) (UniProt Q9H1A4)
Assay: cryo-EM structure

Sequence of UniProt Q9H1A4 (Q9H1A4 whole entry, looked up, one chain of several): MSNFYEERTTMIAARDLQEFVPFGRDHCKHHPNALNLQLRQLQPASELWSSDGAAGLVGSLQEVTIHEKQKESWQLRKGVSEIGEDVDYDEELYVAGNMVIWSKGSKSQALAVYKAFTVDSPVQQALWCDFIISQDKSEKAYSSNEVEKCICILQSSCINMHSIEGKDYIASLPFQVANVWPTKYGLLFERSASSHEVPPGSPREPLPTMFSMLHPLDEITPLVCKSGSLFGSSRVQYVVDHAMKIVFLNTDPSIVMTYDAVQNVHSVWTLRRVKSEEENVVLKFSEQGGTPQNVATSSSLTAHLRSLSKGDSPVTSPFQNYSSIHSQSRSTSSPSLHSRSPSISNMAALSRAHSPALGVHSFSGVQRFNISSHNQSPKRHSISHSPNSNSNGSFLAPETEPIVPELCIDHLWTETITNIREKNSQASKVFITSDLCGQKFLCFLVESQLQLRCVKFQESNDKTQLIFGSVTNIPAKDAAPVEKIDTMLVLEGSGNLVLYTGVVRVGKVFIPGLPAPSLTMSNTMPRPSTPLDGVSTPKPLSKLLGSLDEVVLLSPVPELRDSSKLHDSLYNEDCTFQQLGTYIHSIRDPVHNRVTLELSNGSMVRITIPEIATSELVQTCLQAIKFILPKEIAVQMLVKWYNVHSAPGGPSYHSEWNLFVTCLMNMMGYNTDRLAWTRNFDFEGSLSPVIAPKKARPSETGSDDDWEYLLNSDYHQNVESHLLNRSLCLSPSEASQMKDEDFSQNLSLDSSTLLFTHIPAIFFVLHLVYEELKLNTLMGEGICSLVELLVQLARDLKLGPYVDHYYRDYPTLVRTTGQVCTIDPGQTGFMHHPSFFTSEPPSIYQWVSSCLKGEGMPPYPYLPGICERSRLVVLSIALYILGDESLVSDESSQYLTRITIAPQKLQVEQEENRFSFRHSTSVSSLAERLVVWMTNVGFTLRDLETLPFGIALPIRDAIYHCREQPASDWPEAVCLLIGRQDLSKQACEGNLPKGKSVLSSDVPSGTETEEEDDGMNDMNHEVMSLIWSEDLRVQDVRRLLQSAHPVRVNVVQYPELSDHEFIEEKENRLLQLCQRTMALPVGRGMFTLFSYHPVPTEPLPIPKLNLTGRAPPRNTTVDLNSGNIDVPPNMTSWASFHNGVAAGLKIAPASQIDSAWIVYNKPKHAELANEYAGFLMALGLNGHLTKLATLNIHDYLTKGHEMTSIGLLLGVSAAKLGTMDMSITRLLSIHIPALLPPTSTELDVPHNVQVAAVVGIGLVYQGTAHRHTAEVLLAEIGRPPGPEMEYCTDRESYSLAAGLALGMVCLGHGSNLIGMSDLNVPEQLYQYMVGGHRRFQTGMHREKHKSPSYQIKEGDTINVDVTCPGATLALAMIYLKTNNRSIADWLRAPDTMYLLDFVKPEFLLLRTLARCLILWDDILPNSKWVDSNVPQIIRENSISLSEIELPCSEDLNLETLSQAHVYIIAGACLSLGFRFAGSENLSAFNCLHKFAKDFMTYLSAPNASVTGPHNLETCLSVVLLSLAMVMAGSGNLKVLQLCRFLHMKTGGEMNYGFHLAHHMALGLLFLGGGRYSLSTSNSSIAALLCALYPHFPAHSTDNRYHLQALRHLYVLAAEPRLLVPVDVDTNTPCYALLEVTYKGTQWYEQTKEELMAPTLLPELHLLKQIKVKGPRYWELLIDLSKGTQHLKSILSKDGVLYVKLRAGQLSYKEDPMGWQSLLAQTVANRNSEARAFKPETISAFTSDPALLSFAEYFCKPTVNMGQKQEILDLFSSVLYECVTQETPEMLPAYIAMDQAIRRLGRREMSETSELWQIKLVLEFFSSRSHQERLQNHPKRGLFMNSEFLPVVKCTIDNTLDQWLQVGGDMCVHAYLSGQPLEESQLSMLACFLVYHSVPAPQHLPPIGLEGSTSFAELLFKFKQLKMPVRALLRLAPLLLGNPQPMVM

percent of APC/C molecules with the additional Cdc20 mass: 30%
Substance: recombinant Cdc20 (from UniProt Q12834 1-499) (natural protein)
